Results: patent US20220306744A1 (CRESCENDO BIOLOGICS, published 2022)

Assays:
[1] = biological target: T1, human PD-1 expressed on cells (CHO TREX human PD1 cell line, full-length human PD-1 sequence) (human, UniProt Q15116 21-288); experiment: flow cytometry, PHA-stimulated human CD4+ T cells, Donor 1
T1 construct: Also used for human PD-1 on Jurkat reporter cells, on PathHunter cells and on PHA-stimulated human CD4+ T cells; also called CHO human PD1 cells; CHO human PD-1 cells
Protocol: (§1) Binding of monovalent single domain antibodies and multivalent binding agents to T cells was measured using flow cytometry. Peripheral blood mononuclear cells (PBMCs) were isolated from human blood by density gradient centrifugation then CD4+ T cells purified using a negative selection isolation kit according to the manufacturer's protocol (Miltenyi Biotech cat no 130-096-533). T-cells were stimulated with 2.5 μg/ml PHA for 3 days in RPMI media supplemented with 10% FBS, 2 mM Glutamine, 1× Pen/Strep. Cells were transferred into 96 well plates (75000 per well), blocked for 10 mins with PBS/1% BSA, then incubated with serially diluted VH in staining buffer (PBS/1% BSA) for 1 hour at 4° C. Cells were washed with staining buffer by centrifugation then incubated with 10 μg/ml biotinylated Anti His antibody for 40 mins at 4° C. Cells were washed again then stained with Streptavidin Alexa Fluor-488 (10 μg/ml) and 1:5000 diluted Live Dead near IR stain (Molecular Probes cat no. L10119) for 30 mins at 4° C. After further washing cells were fixed and fluorescence measured by flow cytometry.

[2] = biological target: T1, human PD-1 expressed on cells (CHO TREX …); experiment: flow cytometry, PHA-stimulated human CD4+ T cells, Donor 3
Protocol: as §1

[3] = biological target: T1, human PD-1 expressed on cells (CHO TREX …); experiment: flow cytometry, PHA-stimulated human CD4+ T cells, Donor 4
Protocol: as §1

[4] = biological target: T1, human PD-1 expressed on cells (CHO TREX …); experiment: FMAT: inhibition of PDL-2 (100 pM) binding to CHO human PD-1 cells
Protocol: Purified VH were serially diluted in FMAT assay buffer and tested for binding to CHO human PD-1 cells as described above and for inhibition of human PD-L1/PD-L2 binding to CHO human PD-1 cells. All reagents and serially diluted VH were prepared in FMAT assay buffer. VH, buffer (total binding controls) or excess competitor (non-specific binding control) were incubated with 400 pM human Fc tagged human PD-L1 or 100 pM PDL-2, 4 nM anti human Fc-Alexa Fluor-488 and 2000 per well CHO human PD-1 DRAQ5 stained cells in a 384 well black clear-bottomed assay plates. Plates were incubated for 2 hours at room temperature then fluorescence measured in the FL2 (502 nm-537 nm) and FL5 (677-800 nm) channels on the Mirrorball plate reader (TTP) following excitation at 488 nm and 640 nm. Data was expressed as a % of the total binding control (i.e. % control) after subtraction of the background signal determined from the non-specific binding control wells. The results are shown in FIG. 5 and in Tables 8 and 9 below.

[5] = biological target: T1, human PD-1 expressed on cells (CHO TREX …); experiment: FMAT epitope competition, CHO human PD1 cells; competitor Epitope 1 (1.1-Strep tagged protein)
Protocol: (§2) For the epitope competition assay reagents were prepared in FMAT assay buffer.
(§3) Multivalent molecules 1.92b-4GS-1.39a and 1.92b-4gs-1.62a were tested in the epitope competition assay as described above. 1.92b-4GS-1.39a and 1.92b-4gs-1.62 did cross compete with 1.1-Strap tagged and 2.1-Strap tagged proteins for binding to the cells.
(§4) Plates were incubated for a minimum of 1.5 hours at room temperature then fluorescence measured in the FL2 (502 nm-537 nm) and FL5 (677-800 nm) channels on the Mirrorball plate reader (TTP) following excitation at 488 nm and 640 nm. Data was expressed as a % of the total binding control (i.e. % control) after subtraction of the background signal determined from the non-specific binding control wells.

[6] = biological target: T1, human PD-1 expressed on cells (CHO TREX …); experiment: FMAT epitope competition, CHO human PD1 cells; competitor Epitope 2 (2.1-Strep tagged protein)
Protocol: as §2, §3, §4

[7] = biological target: T1, human PD-1 expressed on cells (CHO TREX …); experiment: epitope competition assay on CHO human PD1 cells (labelled VH not specified) after 1 day in human serum
Protocol: (§5) Serum stability of VH and multivalent VH constructs was assessed by measurement of their activity following incubation for 0, 1, 4 or 7 days both in mouse (Sigma M5905) and human serum. […] Minimal loss of activity was observed following incubation with serum.

[8] = biological target: T1, human PD-1 expressed on cells (CHO TREX …); experiment: epitope competition assay on CHO human PD1 cells (labelled VH not specified) after 0 days in mouse serum
Protocol: as §5

[9] = biological target: T1, human PD-1 expressed on cells (CHO TREX …); experiment: epitope competition assay on CHO human PD1 cells (labelled VH not specified) after 4 days in mouse serum
Protocol: as §5

[10] = biological target: T1, human PD-1 expressed on cells (CHO TREX …); experiment: epitope competition assay on CHO human PD1 cells (labelled VH not specified) after 7 days in human serum
Protocol: as §5

T1 sequence (Q15116 21-288): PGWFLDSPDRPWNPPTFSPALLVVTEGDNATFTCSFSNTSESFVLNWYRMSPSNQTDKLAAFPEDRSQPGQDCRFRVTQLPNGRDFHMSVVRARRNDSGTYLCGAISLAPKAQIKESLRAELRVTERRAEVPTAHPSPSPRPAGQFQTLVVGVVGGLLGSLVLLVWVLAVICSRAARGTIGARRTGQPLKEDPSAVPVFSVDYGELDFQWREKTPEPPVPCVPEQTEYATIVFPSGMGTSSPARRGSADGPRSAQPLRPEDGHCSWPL

EC50 [1]	EC50 [2]	EC50 [3]	IC50 [4]	EC50 [5]	EC50 [6]	IC50 [7]	IC50 [8]	IC50 [9]	IC50 [10]	Binder
0.5 nM	0.6 nM	0.5 nM	1.9 nM	1.1 nM	1.2 nM	0.9 nM	1.2 nM	1.6 nM	1 nM	1.92b-4GS-1.39a (other, Biparatopic VH-linker-VH; built from its parts here because it is not clear whether 1112 is the protein or the nucleic acid) EVQLVESGGGLVKPGGSLRLSCAASGFTFSDESMTWMRQAPGKGLEWVSYISSGGGVKFYADSVKGRFTISRDNAKNSLYLQMNSLRAEDTAVYYCAREAPLRLGESPHDAFDISGQGTMVTVSSGGGGSGGGGSGGGGSGGGGSEVQLVESGGGLVQPGRSLRLSCAASGFTFDDYALHWVRQAPGKDLEWVSGISWNGGSYGYADSVKGRFTISRDNAKNSLYLQMNSLRAEDTALYYCVREKGPGLTGSTADYYGLDAWGQGTMVTVSS
0.3 nM	0.6 nM	0.3 nM	1.6 nM	1 nM	1 nM	1.3 nM	1.7 nM	1.8 nM	1.1 nM	1.92b-4GS-1.62a (other, Biparatopic VH-linker-VH; also called 1.92-4GS-1.62a; 1.92b-4gs-2.12a) EVQLVESGGGLVKPGGSLRLSCAASGFTFSDESMTWMRQAPGKGLEWVSYISSGGGVKFYADSVKGRFTISRDNAKNSLYLQMNSLRAEDTAVYYCAREAPLRLGESPHDAFDISGQGTMVTVSSGGGGSGGGGSGGGGSGGGGSEVQLVESGGGVVRPGGSLRLSCAASGFTFDDYAMSWVRQAPGKGLEWVSGITWNAGSTGYADSVKGRFTISRDNAKNSLYLQMNSLRAEDTALYYCVRDKYSYAWSYDDFDIWGQGTMVTVSS
